Experimental data published in patent publication US8338155B2, “Modified mevalonate kinase with reduced feedback inhibition” (DSM IP Assets B.V., priority 2004, dated 2012).

How the values were obtained:
[1] = test system: Saccharomyces cerevisiae mevalonate kinase; assay: Mevalonate kinase activity assay (NADH consumption, photometric at 340 nm): specific activity; format: biochemical; settings: purified His6-tagged enzyme; WT = non-mutated His6-tagged mevalonate kinase
From the text: Methods for measuring specific activity are known to the person skilled in the art. The specific activity may for instance be determined via measuring the consumption of NADH. Suitable conditions for such measurement may be those as e.g. outlined in Example 1 except that, typically, saturating substrate concentrations are used or, in the case of enzyme inhibition at high substrate concentrations, at substrate concentrations that provide maximal activity under the particular experimental conditions.
(§1) For preparing mevalonate as substrate, 130 mg of DL-mevalonate lactone (FLUKA Chemie AG, Buchs, Switzerland) were dissolved in 5.5 ml of 0.2 M KOH and incubated for 15 min at 50° C. The solution was then adjusted to pH 7.0 by addition of 0.1 M HCl at room temperature (RT). Except if stated otherwise, the assay mixture consisted of 100 mM K2BPO/KH2PO4 (pH 7.0), 1 mM ATP, 2 mM MgCl2, 1 mM mevalonate, 0.5 mM phosphoenolpyruvate (PEP), 0.32 mM NADH, 20 U/ml pyruvate kinase and 27 U/ml lactate dehydrogenase (Sigma-Aldrich, St. Louis, Mo., USA). Inhibition was tested by adding 1 μM FPP.
(§2) Purification of His6-tagged mevalonate kinase and of His6-tagged mevalonate kinase mutant enzymes was done with Ni-NTA chromatography using the QIAexpress system/reagents of Qiagen. Upon addition of purified (His6-tagged) mevalonate kinase, enzymatic reaction reflected by consumption of NADH was followed by photometric measurement at 340 nm. One unit (1 U) of mevalonate kinase activity catalyzes the phosphorylation of 1 μmol of mevalonate per min.
(§3) Preparation of Mevalonate and Activity Measurement was Exactly Performed as Described in Example 1. 1 μM FPP was used for inhibition assays performed with the Saccharomyces cerevisiae mevalonate kinase wild-type enzyme and its mutants.

[2] = test system: Saccharomyces cerevisiae mevalonate kinase; assay: Inhibition of mevalonate kinase activity by the feedback inhibitor FPP: feedback resistance; format: biochemical; settings: 1 μM FPP; % resistance=100·((d/c)−(b/a))/(1−(b/a)) relative to wild-type
Protocol: “Feedback resistance” as used herein may be any increase in resistance to “feedback inhibition” (as defined above). Feedback resistance can be analyzed in different ways known to those skilled in the art. An appropriate example of such an analysis is shortly described herein: mevalonate kinase activity is measured in an activity assay at non-saturating concentrations of for instance ATP (or of another phosphate donor) and mevalonate (or mevalonate analogue), i.e., at for instance ATP (or phosphate donor) and mevalonate (or mevalonate analogue) concentrations around which the reaction rate is sensitive to changes of these substrate concentrations, e.g., at concentrations around the respective Km values of the enzyme under investigation for these substrates. The activities of both wild-type mevalonate kinase and of a variant/mutant of this enzyme are measured under otherwise identical conditions both in the absence and presence of a relevant concentration of a feedback inhibitor, i.e., at a concentration of feedback inhibitor affording significant inhibition of the wild-type mevalonate kinase. If the extent of inhibition (e.g., % inhibition) by the feedback inhibitor is lower for the mutant than for the wild-type enzyme, then the mutant is feedback resistant in the context of the present patent application. Once a feedback resistant variant/mutant has been identified, the same procedure as described above may be applied to identify further improved mutants, i.e., mutants that are even more feedback resistant. Feedback resistance (%) is calculated as follows: if (a) and (b) are the measured mevalonate kinase activities of the wild-type enzyme in the absence and presence, respectively, of the feedback inhibitor (e.g., FPP), and if (c) and (d) are the measured mevalonate kinase activities of the mutant enzyme in the absence and presence, respectively, of the same feedback inhibitor, then % feedback resistance is: % resistance=100·((d/c)−(b/a))/(1−(b/a))
as §1, §2, §3
Feedback resistance (%) was calculated according to the following formula: % resistance=100·((d/c)−(b/a))/(1−(b/a)) wherein (a) and (b) refer to the measured mevalonate kinase activities of the wild-type enzyme in the absence and presence, respectively, and (c) and (d) refer to the measured mevalonate kinase activities of the mutant enzyme in the absence and presence, respectively, of FPP. The results are shown in Tab. 1, wherein WT represents the non-mutated mevalonate kinase containing a His6-tag (SEQ ID NO:3).

| Molecule | Specific activity (% of wild-type) [1] | Feedback resistance (%) [2] [%] |
| --- | --- | --- |
| F59S: Saccharomyces cerevisiae mevalonate kinase mutant with substitution F59S (protein, listed as Saccharomyces cerevisiae) MSLPFLTSAPGKVIIFGEHSAVYNKPAVAASVSALRTYLLISESSAPDTIELDFPDISSNHKWSINDFNAITEDQVNSQKLAKAQQATDGLSQELVSLLDPLLAQLSESFHYHAAFCFLYMFVCLCPHAKNIKFSLKSTLPIGAGLGSSASISVSLALAMAYLGGLIGSNDLEKLSENDKHIVNQWAFIGEKCIHGTPSGIDNAVATYGNALLFEKDSHNGTINTNNFKFLDDFPAIPMILTYTRIPRSTKDLVARVRVLVTEKFPEVMKPILDAMGECALQGLEIMTKLSKCKGTDDEAVETNNELYEQLLELIRINHGLLVSIGVSHPGLELIKNLSDDLRIGSTKLTGAGGGGCSLTLLRRDITQEQIDSFKKKLQDDFSYETFETDLGGTGCCLLSAKNLNKDLKIKSLVFQLFENKTTTKQQIDDLLLPGNTNLPWTS | 31 % of wild-type | 56 |
| K83E, S249P: Saccharomyces cerevisiae mevalonate kinase mutant with substitutions K83E and S249P (protein, listed as Saccharomyces cerevisiae) MSLPFLTSAPGKVIIFGEHSAVYNKPAVAASVSALRTYLLISESSAPDTIELDFPDISFNHKWSINDFNAITEDQVNSQKLAEAQQATDGLSQELVSLLDPLLAQLSESFHYHAAFCFLYMFVCLCPHAKNIKFSLKSTLPIGAGLGSSASISVSLALAMAYLGGLIGSNDLEKLSENDKHIVNQWAFIGEKCIHGTPSGIDNAVATYGNALLFEKDSHNGTINTNNFKFLDDFPAIPMILTYTRIPRPTKDLVARVRVLVTEKFPEVMKPILDAMGECALQGLEIMTKLSKCKGTDDEAVETNNELYEQLLELIRINHGLLVSIGVSHPGLELIKNLSDDLRIGSTKLTGAGGGGCSLTLLRRDITQEQIDSFKKKLQDDFSYETFETDLGGTGCCLLSAKNLNKDLKIKSLVFQLFENKTTTKQQIDDLLLPGNTNLPWTS | 78 % of wild-type | 37 |
| H111N, K375N: Saccharomyces cerevisiae mevalonate kinase mutant with substitutions H111N and K375N (protein, listed as Saccharomyces cerevisiae) MSLPFLTSAPGKVIIFGEHSAVYNKPAVAASVSALRTYLLISESSAPDTIELDFPDISFNHKWSINDFNAITEDQVNSQKLAKAQQATDGLSQELVSLLDPLLAQLSESFNYHAAFCFLYMFVCLCPHAKNIKFSLKSTLPIGAGLGSSASISVSLALAMAYLGGLIGSNDLEKLSENDKHIVNQWAFIGEKCIHGTPSGIDNAVATYGNALLFEKDSHNGTINTNNFKFLDDFPAIPMILTYTRIPRSTKDLVARVRVLVTEKFPEVMKPILDAMGECALQGLEIMTKLSKCKGTDDEAVETNNELYEQLLELIRINHGLLVSIGVSHPGLELIKNLSDDLRIGSTKLTGAGGGGCSLTLLRRDITQEQIDSFNKKLQDDFSYETFETDLGGTGCCLLSAKNLNKDLKIKSLVFQLFENKTTTKQQIDDLLLPGNTNLPWTS | 87 % of wild-type | 65 |
| L106P, S218P: Saccharomyces cerevisiae mevalonate kinase mutant with substitutions L106P and S218P (protein, listed as Saccharomyces cerevisiae) MSLPFLTSAPGKVIIFGEHSAVYNKPAVAASVSALRTYLLISESSAPDTIELDFPDISFNHKWSINDFNAITEDQVNSQKLAKAQQATDGLSQELVSLLDPLLAQPSESFHYHAAFCFLYMFVCLCPHAKNIKFSLKSTLPIGAGLGSSASISVSLALAMAYLGGLIGSNDLEKLSENDKHIVNQWAFIGEKCIHGTPSGIDNAVATYGNALLFEKDPHNGTINTNNFKFLDDFPAIPMILTYTRIPRSTKDLVARVRVLVTEKFPEVMKPILDAMGECALQGLEIMTKLSKCKGTDDEAVETNNELYEQLLELIRINHGLLVSIGVSHPGLELIKNLSDDLRIGSTKLTGAGGGGCSLTLLRRDITQEQIDSFKKKLQDDFSYETFETDLGGTGCCLLSAKNLNKDLKIKSLVFQLFENKTTTKQQIDDLLLPGNTNLPWTS | 42 % of wild-type | 24 |
| I142N, L158S, L231I, T367S: Saccharomyces cerevisiae mevalonate kinase mutant with substitutions I142N, L158S, L231I and T367S (protein, listed as Saccharomyces cerevisiae) MSLPFLTSAPGKVIIFGEHSAVYNKPAVAASVSALRTYLLISESSAPDTIELDFPDISFNHKWSINDFNAITEDQVNSQKLAKAQQATDGLSQELVSLLDPLLAQLSESFHYHAAFCFLYMFVCLCPHAKNIKFSLKSTLPNGAGLGSSASISVSLASAMAYLGGLIGSNDLEKLSENDKHIVNQWAFIGEKCIHGTPSGIDNAVATYGNALLFEKDSHNGTINTNNFKFIDDFPAIPMILTYTRIPRSTKDLVARVRVLVTEKFPEVMKPILDAMGECALQGLEIMTKLSKCKGTDDEAVETNNELYEQLLELIRINHGLLVSIGVSHPGLELIKNLSDDLRIGSTKLTGAGGGGCSLTLLRRDISQEQIDSFKKKLQDDFSYETFETDLGGTGCCLLSAKNLNKDLKIKSLVFQLFENKTTTKQQIDDLLLPGNTNLPWTS | 61 % of wild-type | 58 |
| WT: non-mutated Saccharomyces cerevisiae mevalonate kinase containing a His6-tag (SEQ ID NO:3) (protein, listed as Saccharomyces cerevisiae, His6-tag) MRGSHHHHHHGSACSLPFLTSAPGKVIIFGEHSAVYNKPAVAASVSALRTYLLISESSAPDTIELDFPDISFNHKWSINDFNAITEDQVNSQKLAKAQQATDGLSQELVSLLDPLLAQLSESFHYHAAFCFLYMFVCLCPHAKNIKFSLKSTLPIGAGLGSSASISVSLALAMAYLGGLIGSNDLEKLSENDKHIVNQWAFIGEKCIHGTPSGIDNAVATYGNALLFEKDSHNGTINTNNFKFLDDFPAIPMILTYTRIPRSTKDLVARVRVLVTEKFPEVMKPILDAMGECALQGLEIMTKLSKCKGTDDEAVETNNELYEQLLELIRINHGLLVSIGVSHPGLELIKNLSDDLRIGSTKLTGAGGGGCSLTLLRRDITQEQIDSFKKKLQDDFSYETFETDLGGTGCCLLSAKNLNKDLKIKSLVFQLFENKTTTKQQIDDLLLPGNTNLPWTS | 100 % of wild-type | 0 |
| P55L, C117S: Saccharomyces cerevisiae mevalonate kinase mutant with substitutions P55L and C117S (protein, listed as Saccharomyces cerevisiae) MSLPFLTSAPGKVIIFGEHSAVYNKPAVAASVSALRTYLLISESSAPDTIELDFLDISFNHKWSINDFNAITEDQVNSQKLAKAQQATDGLSQELVSLLDPLLAQLSESFHYHAAFSFLYMFVCLCPHAKNIKFSLKSTLPIGAGLGSSASISVSLALAMAYLGGLIGSNDLEKLSENDKHIVNQWAFIGEKCIHGTPSGIDNAVATYGNALLFEKDSHNGTINTNNFKFLDDFPAIPMILTYTRIPRSTKDLVARVRVLVTEKFPEVMKPILDAMGECALQGLEIMTKLSKCKGTDDEAVETNNELYEQLLELIRINHGLLVSIGVSHPGLELIKNLSDDLRIGSTKLTGAGGGGCSLTLLRRDITQEQIDSFKKKLQDDFSYETFETDLGGTGCCLLSAKNLNKDLKIKSLVFQLFENKTTTKQQIDDLLLPGNTNLPWTS | 60 % of wild-type | 58 |
